assay: yeast display, Sf9 membrane polyspecificity reagent, FACS + sequencing; frameworks hold sequencing errors
Method in brief: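 A synthetic nanobody library was expressed on Saccharomyces cerevisiae BJ5465 by galactose induction for 36–48 hours. The library was stained for 1 hour at 4 °C with 10% biotinylated, detergent-solubilized Sf9 membrane reagent and enriched with streptavidin microbeads before FACS. Low and high (top ~1%) gates were set on anti-HA fluorescence for expression and streptavidin fluorescence for reagent binding, and each polyreactivity label reflects the gate of origin.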

Sequence	polyreactivity (PSR sort gate)
QVQLVESVRGLVQAGGSLRLSCAASGRIIYLNGMGSYRQAPGKERELVAAISSSDDSTYYAVSVKGRFTISRDNATNTVYLQLNSLKPEDTAVYYCAAGYHQVQNYGDAYYWSELYSWGQGTQVTVSS	low polyreactivity
QVQLVESGGGLVQAGGSLRLSCAASGRIFDHYAMGWYRQAPGKERELVAAITRSGGITYYADSVKGRFTISRDNAKNTVYLQMNSLKPEDTAVYSCAALSYRYTDKFDYWGQGTQVTVSS	low polyreactivity
QVQLVESGGGLVQAGGSLRLSCAASGFTFGENAMGWYRQAPGKEWELVATISDSGDSTYYADSVKGRFTISRDNAKNTVYLLMNSLKPEDTAVYDCNAEQVCYTYGRYPEWYLYGYWGQGTQVTVSS	low polyreactivity
QVQLVESGGGLVQAGGSLRLSCAASGIIFIYNAMGWYRQAPGKERELVGAIRRSGSPSYADSVKGRFTISRDNAKNTVYLQMNSLKPEDTAVYYCAADTSTWFGAYYLRDPYDYWGQGTQVTVSS	low polyreactivity
QVQLVESGGGLVQAGGSLRLSCAASGITFDYYAMGWYRQAPGKERELVAAISGGDSTNYADSVKGRFTISRDNEKNTVYLQMNSLKPEDTAVYYCNVQYSGLYWSYRIDFDYWGQGTQVTVSS	high polyreactivity
QVQVVESGGGLVQAGGSLRLSCAASGSIFHAYTMGWSRQAPGKERELVAAISRGDRTYYADSVKGRFTISRDNAKNTVSLQMNSLKPEDTAVYYCNRDRYRYDSWGQGTQLTVSS	high polyreactivity
QVQLVESGGGLVQAGGSLRLSCAASGFTFGRYAMGWYRQAPGKERELVAAISRGGSTYYADSVKGRFTISRDNAKNTVYLQMNSLKPEDTAVYYCNKGDSKEYDVYYWGQGTQVTVSS	low polyreactivity
QVQLVESGGGLVPAGGSLRLSCAASGSMNTLYAMGWYRHAPGKERDLVADITRSGGSTYYADSVKGRFTISRDNAMNTVYLQMNSLKPEDTAVYYCAADKAPYSTEGDYWGQGTQVTVSS	high polyreactivity
QVQLVESVGGLVQAGGSLRLSCASSGSTFTYYAKVWYRQAPGKERELVAAISCTGTSTYYADSVKGRFTISRDNAKNTVYFQMNSLKPEDTAVYYSASTYRGYSGYKRRDYWGQGTQVTVSS	high polyreactivity
QVQLVESGGGLVQSGGSLRLSCAASGGTFVPYAMGWDIQAPGKERELVARISKRGGTTYYADSVKGRFTISRDTAKITVYLQMNSLKPEDTAVSSCAAVLPARGYYWGQGTQVTVSS	high polyreactivity
QVQLVESGGGLVQAGGSLSLSCAATAFTFTYYAMGWYRQAPGKERELVAAITYSGGTTYYADSVKGRFTISRDNAKNTVYLQMNSLKPEDTAVYYCAAVPYYVLARSFYRYGYWGQGTQVTVSS	low polyreactivity
QVQLVESGGGLVQEGGSLRLSCAGSGRTFTFNVMGWYRQAPGKEREFVAAITGTDGSTYYADSVKGRFTISRDNAKNTVYLQMNSLKPEDTAVFYCAARYDWGYVDPGDYWGQGTQVTVSS	high polyreactivity
QVQLVESGGGLVQAGASLRLSCAASGRTFHYYVKGWYRQAPGKERELVAAISRSGGRTYYADSVKGRFTISRDNAKNTVYLQMNSLNPEDTAVYFCAARSGYYYSEGAWRRDYWGQGTQVTLSS	high polyreactivity
QVQLVESGGGLVQAGGSLRLSCAASGRIFGAYTMGWYRQAPGKEREFVAAITQSGGSTYYADSVKGRFTISRDNAKNTVYLQMNSLKPEDTAVYYCAATRYVLVGWRYAVWYDYWGQGTQVTVSS	high polyreactivity
QVQLVESGGCLVQAGGSLRLSCYASGIIFAWYAMGWYRQAPGKERQLVAAISYSGCTTYYADSVKWRFTISRDNAKNTVYFKMNSLKPVDTAVYYCAALLHHFFTYDYWGQGTQVTVSS	low polyreactivity
QVQLVESGGGLVQAGGSLRLSCAASGFTFTTYAMGWYRQAPGKEREFVAAITKRGGRTYYADSVKGRFTISRDYAKNTVYVQMNSLKPEDTAVYYCNKVVHSFPFPYRYDMDYWGQGTQVTVSS	high polyreactivity
QVQLVESGGGLVQAGGSLRLSCAASGRIFFYNTKGWYRQAPGKERELVAVISSSDGSTYADSVKGRFTISRDNAKNTVYLQMNSLKPEDTAVYYCNAGWTRYVPYVRMDYWGHGTQVTVSS	high polyreactivity

Source: the nanobody polyreactivity screen of Harvey et al. (2022)
